Measurements: the DeepSol protein solubility set

experiment: soluble on expression in E. coli; label from the status in PepcDB or PDB records

Row | Sequence | soluble on expression in E. coli
1 | MENISDLWNSALKELEKKVSKPSYETWLKSTTAHNLKKDVLTITAPNEFARDWLESHYSELISETLYDLTGAKLAIRFIIPQSQAEEDIDLPPVKPNPAQDDSAHLPQSMLNPKYTFDTFVIGSGNRFAHAASLAVAEAPAKAYNPLFIYGGVGLGKTHLMHAIGHYVIEHNPNAKVVYLSSEKFTNEFINSIRDNKAVDFRNKYRNVDVLLIDDIQFLAGKEQTQEEFFHTFNALHEESKQIVISSDRPPKEIPTLEDRLRSRFEWGLITDITPPDLETRIAILRKKAKAEGLDIPNEVMLYIANQIDSNIRELEGALIRVVAYSSLINKDINADLAAEALKDIIPNSKPKIISIYDIQKAVGDVYQVKLEDFKAKKRTKSVAFPRQIAMYLSRELTDSSLPKIGEEFGGRDHTTVIHAHEKISKLLKTDTQLQKQVEEINGILKLEHHHHHH | not soluble
2 | MHSLFTLNLDLERAGKVICVQSLPFDTARETLLLLSPVGTQCCYMKNAALFLISHFNLIILESDTWLAYANEAGVNPEEGVADFIRQFNAALPEPVRVDALVGYCSSAPLALLAANQGACRTLLLLNGAYFLKDDGVIKSQYERDVERMMQSIPQGNCAQVYEAVSLLHTKSAYTPSDYRYQQVRPLRELSAFRQYLTFLNSLASLESVRIAQTVKTPTLVWCGSQDRYTDTASSRYIAQLLPHSELVEDPDGQHHDFVDGHERLYLTMTHFLTRHKQRAIQ | not soluble
3 | MVKVTYDIPTCEDYCALRINAGMSPKTREAAEKGLPNALFTVTLYDKDRLIGMGRVIGDGGTVFQIVDIAVSKSYQGQDYGSLIMEHIMKYIKNVSVESAYVSLIADYPADKLYAKFGFMPTEPDSGGMYIKY | soluble
4 | MGHHHHHHSHRRERACPERALDLENIMRKFSGSCRCCAKQIKFYRMRHHYKSCKKYQDEYGVSSIIPNFQISQDSVGNSNRSETSTSDNTETYQENTSSSGHPTFKCPLCQESNFTRQRLLDHCNSNHLFQIVPVTCPICVSLPWGDPSQITRNFVSHLNQRHQFDYGEFVNLQLDEETQYQTAVEESFQVNI | not soluble
5 | MDFSNRLLLLLEVTELGSFTNVAEQKNLDRSVISKQISRLEEELGVRLLNRTTRSLSLTAAGNEMVNQAKLLRDLLNNTHRLAQNYHSEPRGILRITSSMMFGRQYVQDAISVFQKQYPDVKCELRLEDRVVDIVQEGFDIGFRIGRPKNSSLISRKIARSRLLIVASPDFIQQHGKIETIEKLESLPATIYAAPGLFIDKFTYLDENKVEQQFHLNVAYKVNDVEMVVKSAVAGNTLAVVTAQMIENEIIEGKLIPIMTHLNLEDFGTFFAVYPHRDAPIKTKLFIDVLKSIIGEDSPMWEKNIPDFAKLYGGTK | not soluble
6 | MKAVINNTNPENTPPTRAIKRLERDVLRMGALVEQSFRLSHQALFARDLTAAEELPRLDKKIDRFYRQIESDCTSIITLQAPTAQDLRCLSAFMQLVRDLERIGDYAKDLAEIAIKIFPYPPHASLPEIALMSNNAQAMLATSLLALADLDEINGRRLKYLDDDVDHAYNQLYHTLAHQKDVPGVIEPILLLTLAIRCLERMADHATNIGQRVAYIVTGQR | not soluble
7 | MNAGILGVGKYVPEKIVTNFDLEKIMDTSDEWIRTRTGIEERRIARDDEYTHDLAYEAAKVAIKNAGLTPDDIDLFIVATVTQEATFPSVANIIQDRLGAKNAAGMDVEAACAGFTFGVVTAAQFIKTGAYKNIVVVGADKLSKITNWDDRTTAVLFGDGAGAVVMGPVSDDHGLLSFDLGSDGSGGKYLNLDENKKIYMNGREVFRFAVRQMGEASLRVLERAGLEKEDLDLLIPHQANIRIMEASRERLNLPEEKLMKTVHKYGNTSSSSIALALVDAVEEGRIKDNDNVLLVGFGGGLTWGALIIRWGK | not soluble
8 | MDPDNRVRQRAVKTLGKRGNPDVLEDLMEALKDSRQPVQEAASEALRKIIAASDSVPVLVKALDATDRNVRKAAIEALWKAGTPEAIPPLLRELDDADWYLRSRAADALADIASPEAALGLIKVMDIHDSPVKKIIVNALGKIGTVEAVEGLVKALEDLEHHHHHH | soluble
9 | MPDLTKARCPCRGCNKVANNAEEVEELFGLRNMGDGTIRVQSYCRECRGLHCEASNPKCNHHA | not soluble
10 | MKKYEIIFKKLEEDILKGHYQMGDYLPPEMELSQTYASSRDTVRKALQLLTKAGFIKTVQGRGSQIIKRERINFPVSQLTSYQELVKQLQMNVKTNVIAIDKLIVDEKLTKLTGFENKGLVWRITRQRVIDGVASILDTDYLDKALIPHMTREIAEHSIYDYLENQLKLDIAYAQKIITIDQVSQKDKILLDLDSENHVVSVKSKVYLSNQQQFQFTESRHKLEKFRFVDFARRHRD | not soluble
11 | MRDPEFWHNKWAANQIGFHLEDVNPLLIRFWSDLAPKRSEKVLVPLCGKSEDLIWLANQHDSVQGVELSQIAVRSFFAEHFYTPTVTRLNAQHELYQFDELTLFTGDFFTAPVESVDLVYDRAALVALPEEMRAEYAQRVLQLLKPGGRILLVSMDYVQTELSGPPFSVPEAEIRTLFMGCEVRRVYQDTSIDPHLNKRTQAGLSRFAEEVWVIEKSE | not soluble
12 | MTTVLLDSHVAYWWSAEPQRLSMAASQAIEHADELAVAAISWFELAWLAEQERIQLAIPVLSWLQQLAEHVRTVGITPSVAATAVALPSSFPGDPADRLIYATAIEHGWRLVTKDRRLRSHRHPRPVTVW | soluble
13 | MGSDKIHHHHHHMTSSPTSTQESSTSWYLLLQQLIDGESLSRSQAAELMQGWLSEAVPPELSGAILTALNFKGVSADELTGMAEVLQSQSKMGTGENYSQLPITNSPFSIIDTCGTGGDGSSTFNISTAVAFVAAAYGVPVAKHGNRSASSLTGSADVLEALGVNLGASPEKVQAALQEVGITFLFAPGWHPALKAVATLRRTLRIRTVFNLLGPLVNPLRPTGQVVGLFTPKLLTTVAQALDNLGKQKAIVLHGRERLDEAGLGDLTDLAVLSDGELQLTTINPQEVGVTPAPIGALRGGDVQENAEILKAVLQGKGTQAQQDAVALNAALALQVAGAVPLLDHAQGVSVAKEILQTGTAWAKLAQLVYFLGN | soluble
14 | MGSDKIHHHHHHMQHTIQHLYKTHGDDGLLYAWFLSMHTRVDIILCCQKSENELMLVVNSIYDTLRQLERIANYYDPSSELSQVNQRASTAPVMISQSLYRMISLCTEYHKKTLGCFDVTIHSDNYNQDTIHSIHLYPEAQSVFFQQAGTTINLSGFLKGYALDKIREILKVHIIANALINMGNSSVLALGNHPVGTGWKVSFDDQASTTKNHKTQSILLNNECLTTSGNNSDDRKHIISPSSGKPLEGVRQVTVVTDDGTTGEILSTSLFVANQKQRELIMSEFLPKRVIDLELCQMV | not soluble
15 | AMADTIVAVELDSYPNTDIGDPNYPHIGIDIKSIRSKSTARWNMQTGKVGTVHISYNSVAKRLSAVVSYSGSSSTTVSYDVDLNNVLPEWVRVGLSATTGLYKETNTILSWSFTSKLKTNSIADANSLHFSFNQFSQNPKDLILQGDAFTDSDGNLQLTKVSSSGDPQGNSVGRALFYAPVHIWEKSAVVASFDATFTFLIKSPDREPADGITFFIANTDTSIPSGSGGRLLGLFPDAN | soluble
16 | MVSDIVLEVQSLHVYYGAIHAIKGIDLKVPRGQIVTLIGANGAGKTTTLSAIAGLVRAQKGKIIFNGQDITNKPAHVINRMGIALVPEGRRIFPELTVYENLMMGAYNRKDKEGIKRDLEWIFSLFPRLKERLKQLGGTLSGGEQQMLAIGRALMSRPKLLMMDEPSLGLAPILVSEVFEVIQKINQEGTTILLVEQNALGALKVAHYGYVLETGQIVLEGKASELLDNEMVRKAYLGVA | soluble
17 | MEYGAICTPFIFVVYAKSKYLCVLISNEMGKNKLEKFADMASYPHVFEYPYSAVDNVPFDMKGKWHQEFFGNDHPIVLELGCGRGEYTVGLGRMFPDKNFIAVDIKGSRMWTGATESLQAGMKNVAFLRTNIEIIERFFAAGEVSEIWLTFSDPQMKKATKRLTSTYFMERYRKFLKPDGIIHLKTDSNFMFTYTKYMIEANQLPVEFITEDLYHSDLVDDILSIKTYYEQQWLDRGLNIKYIKFRLPQEGVLQEPDVEIELDPYRSYNRSKRSGLQTSK | not soluble
18 | MGSDKIHHHHHHMSWHNKVVWNEGLFLLPQLFQQQERYFEYFAHKRAAVLSPFFWGFSRYEIDQESLSFGKLVFKSGAGIFPDGTPFDVPGHTPPPPPLTIAAEHQDQVIYLAVPLRLPNTEETAFDEQAGSLARYSAFEIELRDSNAIGQGPKPVQLANMRLRLLPEKELTQSWIGIALTRVKTLHADGSVALYDGDHIPPVSQYGANPLLREWATQLHGLAKLRADALATRLSGSDGRAGAAAEVADYLLLQVLNRYEPLLEHICRIREMPPVTLYRELSMLAGELSTFVRPQTRRPRPTPGYDHAQLYASIRPLVDEVHYLLNQVLIRGAQPIPLTEQPHGIRVATMLPSELAGYSSLVLAVGAQMSPDVLQQQFASQTKISHPQRLPELIRSHLPGMTMIPLPVPPRQIPFNSSYIYYELSRTGPFWEQIAQQGGLAMHIAGHFPELKLELWGVRHK | not soluble
19 | MSLAERKPIESWLTDMDGVLIHEGVPIPGADAFIKKLRESGKPFLVLTNNSIYTPRDLHARLRRMGLDVPVENIWTSALATAQFLGDQRPDGTAYVIGEAGLTTALHDIGYVLTDHEPDYVVLGETRTYSFEAMTQAVRLINKGARFICTNPDETGPSAEGPLPATGAVAALITKATGKKPYFAGKPNPLMMRTGLNTLGAHSETSAMIGDRMDTDVLAGMEAGMQTFLVLTGLTGPDQVENYPYRPSKVVDSIADLVDWIEGHHHHHH | soluble
20 | MGSDKIHHHHHHMDTQAFKQTLHKSDRYNRRGFGSANKRAQALAEAYQSGLIGSIRENGNLLEHGRLKVKLAEAFGFCWGVERSVAMAYETRKHYPNERIWITNEIIHNPSVNDHLRKMNVLFISEEKGVKDFSVVKDGDVVILPAFGATVQDMKLLHDRGCHIIDTTCPWVSKVWHTVEKHKKHTFTSIIHGKYKHEETLATSSFAGTYLVLFDLEEANYVSDYILGKGNREDFLKRFSKASSAGFDPDKDLQKVGVANQTTMLKSETEEIGRLFEKTMLQRFGPAQLNEHFLAINTICDATEERQGAMFSLVDEPLDLMVVIGGFNSSNTTHLQEIAISRGIRSFHIDTPERIGEETNTITHMPLEGGELLTEENFLQNGNISVGITSGASTPDRVVEDVIHKLMKIGENF | not soluble
21 | GKQKQYLFEARDITSRKLMEDKLYQRESSLRNYYEQQPVMMVTLDSHNRIQEVNRFAQLLLGYEPIEMLGHRLREFYLDDKALFPRQVLLQPSHQVHDVWRREIEYRHADGHSVWVRENIRPLNDSD | not soluble
22 | MTFLRYAIYFLPPASEAWAGFGASWLGWDVETGQELAHPAETGLDVAALTATPRKYGLHATMKPPFRLAEGQDVDALRRACATLAASRPAVTLDGLEIARLGRFLALRPVGELGALNALAAACVTELDPFRAPATPQELVRRRAARLSPEQDAHLLSWGYPYVLDQFRFHITLTGRLDDDMLMQAQTLLQRRLGPLLPVPFTLADLALVGEAGDGRFHLIHRYALSR | not soluble
23 | MGLHPTLGEHGERELLALQKVDYPKGDVKAQAKHTARTLLECYNCHSLGEYNTLLNLYNITVYEVRGSVDGKEYHGIMYGALDDNGQQVGTPFKSSKFGKVFGYEALQKKFAASAEKVKKDNLPERLEHHHHHH | soluble
24 | MTENVPLTRPQLRRLLRNARRALTPAQQRQATLGLYRQLAQHPLFRRARHIALYLPNDGEIDPRLLMREAQRRGKCIYLPVLHAWPRTRMVFQRFEQGEKLKPNRFRIPEPIIDRKRQRPIWALDLILLPLVGFDEVGGRLGMGGGFYDRSLAYQARRQTWKKPLLLGLAHECQKVERLAQASWDVPLQGTVSDRGWYLAPRLEHHHHHH | soluble
